US20260167718A1 (Merck Sharp & Dohme, published 2026)

T1: rhesus ILT3-His tagged recombinant protein (rhesus monkey (Macaca mulatta))
T1 construct: also called ILT3_MM; not shown: His tag
T1 chain: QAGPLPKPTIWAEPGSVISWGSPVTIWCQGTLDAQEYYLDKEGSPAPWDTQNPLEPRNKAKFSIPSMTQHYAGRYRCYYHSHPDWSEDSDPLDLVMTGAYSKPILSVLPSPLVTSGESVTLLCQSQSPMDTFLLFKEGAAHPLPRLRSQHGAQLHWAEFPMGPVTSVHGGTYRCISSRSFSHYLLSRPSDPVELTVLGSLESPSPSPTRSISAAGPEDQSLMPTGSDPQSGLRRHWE

B1: Humanized anti-ILT3 mAb (52B8 VH1/VL1) IgG4 S228P/Kappa (antibody, V domains shown)
VH: EVQLVESGGGLVQPGGSLRLSCAASGFTFSNYGMSWVRQAPGKGLEWVATISGGGDYTNYPDSMRGRFTISRDNAKNSLYLQMNSLRAEDTAVYYCGRRLWFRSLYYAMDYWGQGTLVTVSS
VL: DIVLTQSPDSLAVSLGERATINCRASEKVDSFGNSFMHWYQQKPGQPPKLLIYLTSNLDSGVPDRFSGSGSRTDFTLTISSLQAEDVAVYYCQQNNEDPYTFGQGTKLEIKR
notes: also called mAb 1
B2: Humanized anti-ILT3 mAb (52B8 VH1 M64L/VL1) IgG4 S228P/Kappa (antibody, V domains shown)
VH: EVQLVESGGGLVQPGGSLRLSCAASGFTFSNYGMSWVRQAPGKGLEWVATISGGGDYTNYPDSLRGRFTISRDNAKNSLYLQMNSLRAEDTAVYYCGRRLWFRSLYYAMDYWGQGTLVTVSS
VL: DIVLTQSPDSLAVSLGERATINCRASEKVDSFGNSFMHWYQQKPGQPPKLLIYLTSNLDSGVPDRFSGSGSRTDFTLTISSLQAEDVAVYYCQQNNEDPYTFGQGTKLEIKR
notes: also called mAb 17
B3: Humanized anti-ILT3 mAb (52B8 VH1 M64V/VL1) IgG4 S228P/Kappa (antibody, V domains shown)
VH: EVQLVESGGGLVQPGGSLRLSCAASGFTFSNYGMSWVRQAPGKGLEWVATISGGGDYTNYPDSVRGRFTISRDNAKNSLYLQMNSLRAEDTAVYYCGRRLWFRSLYYAMDYWGQGTLVTVSS
VL: DIVLTQSPDSLAVSLGERATINCRASEKVDSFGNSFMHWYQQKPGQPPKLLIYLTSNLDSGVPDRFSGSGSRTDFTLTISSLQAEDVAVYYCQQNNEDPYTFGQGTKLEIKR
notes: also called mAb 9
B4: Humanized anti-ILT3 mAb (52B8 VH2 M64V/VL1) IgG4 S228P/Kappa (antibody, V domains shown)
VH: EVQLVESGGGLVQPGGSLRLSCAASGFTFSNYGMSWVRQAPGKGLEWVATISGGGDYTNYPDSVRGRFTISRDNAKNSLYLQMNSLKAEDTAVYYCGRRLWFRSLYYAMDYWGQGTLVTVSS
VL: DIVLTQSPDSLAVSLGERATINCRASEKVDSFGNSFMHWYQQKPGQPPKLLIYLTSNLDSGVPDRFSGSGSRTDFTLTISSLQAEDVAVYYCQQNNEDPYTFGQGTKLEIKR
notes: also called mAb 13
B5: Humanized anti-ILT3 mAb (52B8 VH2/VL1) IgG4 S228P/Kappa (antibody, V domains shown)
VH: EVQLVESGGGLVQPGGSLRLSCAASGFTFSNYGMSWVRQAPGKGLEWVATISGGGDYTNYPDSMRGRFTISRDNAKNSLYLQMNSLKAEDTAVYYCGRRLWFRSLYYAMDYWGQGTLVTVSS
VL: DIVLTQSPDSLAVSLGERATINCRASEKVDSFGNSFMHWYQQKPGQPPKLLIYLTSNLDSGVPDRFSGSGSRTDFTLTISSLQAEDVAVYYCQQNNEDPYTFGQGTKLEIKR
B6: Humanized anti-ILT3 mAb (52B8 VH1 M64V W101F/VL5 N34D) IgG4 S228P/Kappa (antibody, V domains shown)
VH: EVQLVESGGGLVQPGGSLRLSCAASGFTFSNYGMSWVRQAPGKGLEWVATISGGGDYTNYPDSVRGRFTISRDNAKNSLYLQMNSLRAEDTAVYYCGRRLFFRSLYYAMDYWGQGTLVTVSS
VL: DIQLTQSPSSLSASVGDRVTITCRASEKVDSFGDSFMHWYQQKPGKAPKLLIYLTSNLDSGVPSRFSGSGSGTDFTLTISSLQPEDFATYYCQQNNEDPYTFGQGTKLEIKR
notes: also called mAb 54
B7: Humanized anti-ILT3 mAb (52B8 VH1 M64V W101F/VL5 N34Q) IgG4 S228P/Kappa (antibody, V domains shown)
VH: EVQLVESGGGLVQPGGSLRLSCAASGFTFSNYGMSWVRQAPGKGLEWVATISGGGDYTNYPDSVRGRFTISRDNAKNSLYLQMNSLRAEDTAVYYCGRRLFFRSLYYAMDYWGQGTLVTVSS
VL: DIQLTQSPSSLSASVGDRVTITCRASEKVDSFGQSFMHWYQQKPGKAPKLLIYLTSNLDSGVPSRFSGSGSGTDFTLTISSLQPEDFATYYCQQNNEDPYTFGQGTKLEIKR
notes: also called mAb 53
B8: Humanized anti-ILT3 mAb (52B8 VH1 M64V W101F/VL5 S35A) IgG4 S228P/Kappa (antibody, V domains shown)
VH: EVQLVESGGGLVQPGGSLRLSCAASGFTFSNYGMSWVRQAPGKGLEWVATISGGGDYTNYPDSVRGRFTISRDNAKNSLYLQMNSLRAEDTAVYYCGRRLFFRSLYYAMDYWGQGTLVTVSS
VL: DIQLTQSPSSLSASVGDRVTITCRASEKVDSFGNAFMHWYQQKPGKAPKLLIYLTSNLDSGVPSRFSGSGSGTDFTLTISSLQPEDFATYYCQQNNEDPYTFGQGTKLEIKR
notes: also called mAb 51
B9: Humanized anti-ILT3 mAb (52B8 VH1 M64V W101F/VL5 S35N) IgG4 S228P/Kappa (antibody, V domains shown)
VH: EVQLVESGGGLVQPGGSLRLSCAASGFTFSNYGMSWVRQAPGKGLEWVATISGGGDYTNYPDSVRGRFTISRDNAKNSLYLQMNSLRAEDTAVYYCGRRLFFRSLYYAMDYWGQGTLVTVSS
VL: DIQLTQSPSSLSASVGDRVTITCRASEKVDSFGNNFMHWYQQKPGKAPKLLIYLTSNLDSGVPSRFSGSGSGTDFTLTISSLQPEDFATYYCQQNNEDPYTFGQGTKLEIKR
B10: Humanized anti-ILT3 mAb (52B8 VH1 M64V W101Q/VL5 N34D) IgG4 S228P/Kappa (antibody, V domains shown)
VH: EVQLVESGGGLVQPGGSLRLSCAASGFTFSNYGMSWVRQAPGKGLEWVATISGGGDYTNYPDSVRGRFTISRDNAKNSLYLQMNSLRAEDTAVYYCGRRLQFRSLYYAMDYWGQGTLVTVSS
VL: DIQLTQSPSSLSASVGDRVTITCRASEKVDSFGDSFMHWYQQKPGKAPKLLIYLTSNLDSGVPSRFSGSGSGTDFTLTISSLQPEDFATYYCQQNNEDPYTFGQGTKLEIKR
notes: also called mAb 62
B11: Humanized anti-ILT3 mAb (52B8 VH1 M64V W101Q/VL5 N34Q) IgG4 S228P/Kappa (antibody, V domains shown)
VH: EVQLVESGGGLVQPGGSLRLSCAASGFTFSNYGMSWVRQAPGKGLEWVATISGGGDYTNYPDSVRGRFTISRDNAKNSLYLQMNSLRAEDTAVYYCGRRLQFRSLYYAMDYWGQGTLVTVSS
VL: DIQLTQSPSSLSASVGDRVTITCRASEKVDSFGQSFMHWYQQKPGKAPKLLIYLTSNLDSGVPSRFSGSGSGTDFTLTISSLQPEDFATYYCQQNNEDPYTFGQGTKLEIKR
notes: also called mAb 61
B12: Humanized anti-ILT3 mAb (52B8 VH1 M64V W101Q/VL5 S35A) IgG4 S228P/Kappa (antibody, V domains shown)
VH: EVQLVESGGGLVQPGGSLRLSCAASGFTFSNYGMSWVRQAPGKGLEWVATISGGGDYTNYPDSVRGRFTISRDNAKNSLYLQMNSLRAEDTAVYYCGRRLQFRSLYYAMDYWGQGTLVTVSS
VL: DIQLTQSPSSLSASVGDRVTITCRASEKVDSFGNAFMHWYQQKPGKAPKLLIYLTSNLDSGVPSRFSGSGSGTDFTLTISSLQPEDFATYYCQQNNEDPYTFGQGTKLEIKR
notes: also called mAb 59
B13: Humanized anti-ILT3 mAb (52B8 VH1 M64V W101Q/VL5 S35N) IgG4 S228P/Kappa (antibody, V domains shown)
VH: EVQLVESGGGLVQPGGSLRLSCAASGFTFSNYGMSWVRQAPGKGLEWVATISGGGDYTNYPDSVRGRFTISRDNAKNSLYLQMNSLRAEDTAVYYCGRRLQFRSLYYAMDYWGQGTLVTVSS
VL: DIQLTQSPSSLSASVGDRVTITCRASEKVDSFGNNFMHWYQQKPGKAPKLLIYLTSNLDSGVPSRFSGSGSGTDFTLTISSLQPEDFATYYCQQNNEDPYTFGQGTKLEIKR
notes: also called mAb 60
B14: Humanized anti-ILT3 mAb (52B8 VH1 M64V W101Y/VL5 N34D) IgG4 S228P/Kappa (antibody, V domains shown)
VH: EVQLVESGGGLVQPGGSLRLSCAASGFTFSNYGMSWVRQAPGKGLEWVATISGGGDYTNYPDSVRGRFTISRDNAKNSLYLQMNSLRAEDTAVYYCGRRLYFRSLYYAMDYWGQGTLVTVSS
VL: DIQLTQSPSSLSASVGDRVTITCRASEKVDSFGDSFMHWYQQKPGKAPKLLIYLTSNLDSGVPSRFSGSGSGTDFTLTISSLQPEDFATYYCQQNNEDPYTFGQGTKLEIKR
notes: also called mAb 58
B15: Humanized anti-ILT3 mAb (52B8 VH1 M64V W101Y/VL5 N34Q) IgG4 S228P/Kappa (antibody, V domains shown)
VH: EVQLVESGGGLVQPGGSLRLSCAASGFTFSNYGMSWVRQAPGKGLEWVATISGGGDYTNYPDSVRGRFTISRDNAKNSLYLQMNSLRAEDTAVYYCGRRLYFRSLYYAMDYWGQGTLVTVSS
VL: DIQLTQSPSSLSASVGDRVTITCRASEKVDSFGQSFMHWYQQKPGKAPKLLIYLTSNLDSGVPSRFSGSGSGTDFTLTISSLQPEDFATYYCQQNNEDPYTFGQGTKLEIKR
notes: also called mAb 57
B16: Humanized anti-ILT3 mAb (52B8 VH1 M64V W101Y/VL5 S35A) IgG4 S228P/Kappa (antibody, V domains shown)
VH: EVQLVESGGGLVQPGGSLRLSCAASGFTFSNYGMSWVRQAPGKGLEWVATISGGGDYTNYPDSVRGRFTISRDNAKNSLYLQMNSLRAEDTAVYYCGRRLYFRSLYYAMDYWGQGTLVTVSS
VL: DIQLTQSPSSLSASVGDRVTITCRASEKVDSFGNAFMHWYQQKPGKAPKLLIYLTSNLDSGVPSRFSGSGSGTDFTLTISSLQPEDFATYYCQQNNEDPYTFGQGTKLEIKR
notes: also called mAb 55

Assays:
[1] = molecular target: T1, rhesus ILT3-His tagged recombinant …; experiment: SPR (Biacore), rhesus ILT3-His
Description: (§1) The binding kinetics and affinities of anti-human ILT3 clones for human or rhesus ILT3-His tagged recombinant protein were measured by surface plasmon resonance using a Biacore™ T200 system (GE Healthcare, Piscataway, NJ). HBS-EP+ buffer (BR-1006-69) was used as the running buffer. Anti-human Fc antibody (Human Fc Capture Kit, BR100839, GE Healthcare) was immobilized via amine coupling chemistry in all four flow cells on a Series S CM5 sensor chip (BR100530 or 29149603, GE Healthcare) following manufacturer instructions. Flow cell 1 was used as reference for background subtraction and was not used for capture. […] Following each injection cycle, all four flow cells were regenerated using 30 second injection of 3M MgCl₂ solution at a flow rate of 10 μL/minute. Reference subtracted sensorgrams were fit to a 1:1 Langmuir Binding Model in the Biacore™ T200 Evaluation Software (Version 2.0) to determine the association (ka) and dissociation (kd) rate constants and the equilibrium dissociation constant KD (=kd/ka).

[2] = molecular target: T2, Human ILT3 (LILRB4) extracellular domain with C-terminal His Tag (human, UniProt Q8NHJ6 22-259); experiment: SPR (Biacore), human ILT3-His
T2 construct: the claims count residues 1-238 as the extracellular domain; also called human ILT3-His; ILT3_H
Description: as §1

| Binder | Kd [1] | Kd [2] | binding result [1] | binding result [2] |
| --- | --- | --- | --- | --- |
| B1 | 25 nM | 0.99 nM |  |  |
| B2 | 24 nM | 0.87 nM |  |  |
| B3 | 26 nM | 0.94 nM |  |  |
| B4 | 25 nM | 0.94 nM |  |  |
| B5 | 25 nM | 0.94 nM |  |  |
| B6 |  |  | no binding (tested: ILT3-His injected up to 20 nM) | no binding (tested: ILT3-His injected up to 20 nM) |
| B7 |  | 35 nM | no binding (tested: ILT3-His injected up to 20 nM) |  |
| B8 |  |  | no binding (tested: ILT3-His injected up to 20 nM) | no binding (tested: ILT3-His injected up to 20 nM) |
| B9 |  |  | no binding (tested: ILT3-His injected up to 20 nM) | no binding (tested: ILT3-His injected up to 20 nM) |
| B10 |  |  | no binding (tested: ILT3-His injected up to 20 nM) | no binding (tested: ILT3-His injected up to 20 nM) |
| B11 |  |  | no binding (tested: ILT3-His injected up to 20 nM) | no binding (tested: ILT3-His injected up to 20 nM) |
| B12 |  |  | no binding (tested: ILT3-His injected up to 20 nM) | no binding (tested: ILT3-His injected up to 20 nM) |
| B13 |  |  | no binding (tested: ILT3-His injected up to 20 nM) | no binding (tested: ILT3-His injected up to 20 nM) |
| B14 |  |  | no binding (tested: ILT3-His injected up to 20 nM) | no binding (tested: ILT3-His injected up to 20 nM) |
| B15 |  |  | no binding (tested: ILT3-His injected up to 20 nM) | no binding (tested: ILT3-His injected up to 20 nM) |
| B16 |  |  | no binding (tested: ILT3-His injected up to 20 nM) | no binding (tested: ILT3-His injected up to 20 nM) |
